Assay results reported in the RNAGym collection of RNA variant scans (doi:10.1073/pnas.2313332121).
This sample holds only a part of the variants without activity.

B1: TPR 5TU (parent)
chain: GGAUCUUCUCGAUCUAACAAAAAAGACAAAUCUGCCACAAAGCUUGAGAGCAUCUUCGGAUGCAGAGGCGGCAGCCUUCGGUGGCGCGAUAGCGCCAACGUUCUCAACUAUGACACGCAAAACGCGUGCUCCGUUGAAUGGAGUUUAUCAUG

Variants of: B1
Assay: polymerase ribozyme fitness, log enrichment relative to wild type (log ratio); higher = more active; in vitro selection for triplet polymerase activity
Summary of the method: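 Frozen incubation at −7 °C formed the core of a single, triplicate in vitro selection round applied to PCR-built, transcribed mutant libraries of each subunit of a heterodimeric triplet polymerase ribozyme. Extended constructs were gel-excised, captured with streptavidin beads and amplified by RT-PCR, and input and output libraries were Illumina-sequenced with a filter of ≥10 input reads and ≥1 read per output. Fitness is the logarithm of genotype enrichment relative to wild-type enrichment, with inverse-variance-weighted replicate averaging, and the logarithm is base 2.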

Row | Variant | polymerase ribozyme fitness (log ratio)
1 | GGAUCUUCUCGAUCUAACAAAAAAGACAAAUCUGCCACAAAGCUUGAGAGCAUCUUCGGAUCUAGAGGCGGCAGCCUUAGGUGGUGCGAUAGCGCCAUUGUUCUCAACUAUGACACGCAAAACGCGUGCUACGUCGAAUGGAGAUUAUCAUG [G62C C63U C79A C85U A98U C99U C131A U135C U144A] | ≤ -4.2
2 | GGAUCUUCUCGAUCUAACAAAAAAGACAAAUCUGCCACAAAGCUUGAGAGCAUCUUCGGAUACAGAGGCGGCAGCCUUCGGUGGCGCGAUAGCGCCAACGUUCUCAACUAUGACACGCAAAACGCGUGCUCCGUUGAAUAGAGUUUAUCAUG [G62A G140A] | -3.95
3 | GGAUCUUCUCGAUCUAACAAAAAAGACAAAUCUGCCACAAAGCUUGAGAGCAUCUUCGGAUCAAGAGGCGGCAGCCUUCGGUGGCGCGAUAGCGCCAACGUUCUCAACUAUGACAGGCAAAACGCGUGCUCCGUUGAAUGGAGUUUAUCAUG [G62C C63A C116G] | -1.77
4 | GGAUCUUCUCGAUCUAACAAAAAAGACAAAUCUGCCACAAAGCUUGAGAGCAUCUUCGGAUACAGAGGCGGCAGCCUUCGGUGGCGUGAUAGCGCCAACGUUCUCAACUAUGACACGCAGAACGCGUGCUCCGUUGAAUGGCGUUUAUCAUG [G62A C87U A120G A142C] | -3.11
5 | GGAUCUUCUCGAUCUAACAAAAAAGACAAAUCUGCCACAAAGCUUGAGAGCAUCUUCGGAUCCAGAGGCGGCAGCCUUCGGUGGCGCGAUAGCGCCAACGUUCUCUACUAUGACACGCAAAACGUGUGCUCCGUUGAAUGGAGUUUAUCAUG [G62C A106U C125U] | -3.86
6 | GGAUCUUCUCGAUCUAACAAAAAAGACAAAUCUGCCACAAAGCUUGAGAGCAUCUUCGGAUCCAGAGGCGGCAGCCUUCGGUGGCGCGAUAGCGCCAACGUUCUCAACUAUGACACGCAAAACGCGUGCUCCGUUGAAUGGAGUUUAUCAUG [G62C] | -1.07
7 | GGAUCUUCUCGAUCUAACAAAAAAGACAAAUCUGCCACAAAGCUUGAGAGCAUCUUCGGAUCCAGAGGCGGCAGCCUUCGGUGGCGCGAUAGCGCCAACGUUCUCAACUAUGACCCGCAAAACGCGUGCUCCGUUGAAUGGAGUUUAUCAUG [G62C A115C] | -1.06
8 | GGAUCUUCUCGAUCUAACAAAAAAGACAAAUCUGCCACAAAGCUUGAGAGCAUCUUCGGAUCCAGAGGCGGCAGCCUUCGGUGGCGCGAUAGCGCCAACGUUCUCAACUAUGACACGCAGAACGCGUGCUCCGUUGAAUGGAGUUUAUCAUG [G62C A120G] | -0.94
9 | GGAUCUUCUCGAUCUAACAAAAAAGACAAAUCUGCCACAAAGCUUGAGAGCAUCUUCGGAUCCAGAGGCGGCAGCCUUCGGUGGAGCGAUAGCGCCAACGUUCUCAACUAUGACACGCAAAACGCGUGCUCCGUUGAAUGGAGUUUAUCAUG [G62C C85A] | -3.75
10 | GGAUCUUCUCGAUCUAACAAAAAAGACAAAUCUGCCACAAAGCUUGAGAGCAUCUUCGGAUACAGAGGCGGCAGCCUUCGGCGGCGCGAUAGCGACAACGCUCUCAACUAUGACACGCAAAACGCGUGCUCCGUUGAAUGGAGUUUAACAUG [G62A U82C C95A U101C U148A] | ≤ -4.2
11 | GGAUCUUCUCGAUCUAACAAAAAAGACAAAUCUGCCACAAAGCUUGAGAGCAUCUUCGGAUACAGAGGCGGCAGCCUUCGGUGGCGCGAUAGCGCCAACGUUCUCAACUAUGACACACAAAACGCGUGCUCCGCUGAAUGGAGUUUAUCGUG [G62A G117A U134C A150G] | ≤ -4.2
12 | GGAUCUUCUCGAUCUAACAAAAAAGACAAAUCUGCCACAAAGCUUGAGAGCAUCUUCGGAUACAGAGGCGGCAGCCUUCGGUGGCGCGAUAGCGCCAACGUUCUCAACUAUGACACGCAAAACGCGUGCUCCGUUGAAUGUAGUUUAUCAUG [G62A G141U] | 1.11
13 | GGAUCUUCUCGAUCUAACAAAAAAGACAAAUCUGCCACAAAGCUUGAGAGCAUCUUCGGAUACAGAGGCGGCAGCCUUCGGUGGCGCGAUAGCGCCAAUGUUCUCAACUAUGACACGCAAAACGCGUGCUCCGUUGAAUGGAGUUUAUCAUG [G62A C99U] | -2.24
14 | GGAUCUUCUCGAUCUAACAAAAAAGACAAAUCUGCCACAAAGCUUGAGAGCAUCUUCGGAUACAAAGGCGGCAGCCUUCGGUGGCGCGAUAGCGCCAACGUUCUCAACUAUGACACUCAAAACGCGUGCUCCGUUGAAUGGAGAUUAUCAUG [G62A G65A G117U U144A] | -3.79
15 | GGAUCUUCUCGAUCUAACAAAAAAGACAAAUCUGCCACAAAGCUUGAGAGCAUCUUCGGAUCCAGAGGCGGCAGCCUUCGGUGGAGCGAUAGCGCCAAGGUUCUCAACUAUGACACGCAAAACGCGUGCUCCGUUGAAUGGAGUUUAUCAGG [G62C C85A C99G U151G] | ≤ -4.2
16 | GGAUCUUCUCGAUCUAACAAAAAAGACAAAUCUGCCACAAAGCUUGAGAGCAUCUUCGGAUCCAGAGGCGGCAGCCUUCGGUGGCGCGAUAGCGCCAACGUUCUCAACUAUGUCACACAAAACGCGUGCUCCGUUGCAUGGAGUUUAUCAUG [G62C A113U G117A A137C] | ≤ -4.2
17 | GGAUCUUCUCGAUCUAACAAAAAAGACAAAUCUGCCACAAAGCUUGAGAGCAUCUUCGGAUACAGAGGCGGCAGCCUUCGGUGGCGCGAUAGGGCCAACGUUCUCAACUAUGACACGCAAAACGCGUGCCCCGUUGAAUGGAGUUUAUCAUG [G62A C93G U130C] | -3.01
18 | GGAUCUUCUCGAUCUAACAAAAAAGACAAAUCUGCCACAAAGCUUGAGAGCAUCUUCGGAUACAGAGGCGGCAGCCUUCGGUGGCGCGAUAGCGCCAACGUUCUCAACUAUGACACGCAAAACGCGUGCGCCGUUGAAUGGAGUUUAUCAUG [G62A U130G] | -3.67
19 | GGAUCUUCUCGAUCUAACAAAAAAGACAAAUCUGCCACAAAGCUUGAGAGCAUCUUCGGAUACAGAGGCAACAGCCUUCCGUGGCGUGAUAGCGCCAACGUUCUCAAUUAUGACACGCAAAACGCGUGCUCCGUUGAAUGGAGUUUAUCAUG [G62A G70A G71A G80C C87U C108U] | ≤ -4.2
